Test results reported in the supplement of paper PMC10567573.

B1: GLTSCR2 (parent)
chain: YNPSFEDHQTLLSAAHEVELQRQK

Variants of: B1
Experiment: protein stability index of a GFP-peptide fusion (GPS, HEK-293T) (PSI 1-6); higher = more stable
Settings: c terminus: a fixed tail appended
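Further: lentivirally expressed fusions sorted by FACS into six bins by GFP to DsRed ratio, PSI derived from sequencing read proportions per bin multiplied by bin number.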

Protein stability index: each site, then its substitutions
F5: L 3.43 | P 4.02 | T 4.28 | A 4.22 | S 3.88 | W 3.07 | V 3.83 | G 4.06 | N 4.43 | E 4.9 | Q 4.62 | M 3.5 | K 2.48 | Y 3.68 | H 4.09 | D 5.24 | R 3.96 | I 4.07 | C 4
P3: H 4.67 | E 5.06 | N 4.45 | Y 3.97 | T 5.01 | F 4.06 | K 4.3 | I 3.82 | Q 5.13 | V 3.73 | C 3.37 | L 4.3 | A 4.25 | D 4.32 | M 4.08 | R 3.85 | G 4.35 | W 1.9 | S 4.28
L20: G 4.16 | C 3.99 | E 4.54 | F 3.57 | A 4.04 | D 4.29
E6: S 3.15 | V 3 | W 2.75 | R 2.57 | P 3.76 | N 3.33 | I 3.12 | F 2.51 | T 3.09 | L 3.04 | K 2.72 | Q 2.58 | M 2.38 | A 3.1 | D 4.14 | Y 2.67 | H 3.18 | G 3.42 | C 3.25
H8: P 3.86 | W 1.88 | L 2.22 | G 4.05 | D 4.81 | Q 3.84 | E 4.4 | K 3.62 | S 4.2 | R 3.66 | N 4.29 | A 3.79 | C 2.67 | I 2.53 | V 2.33 | Y 1.54 | T 3.11 | M 2.72 | F 1.99
E17: M 3.29 | R 3.4 | D 3.85 | V 2.83 | P 3.33 | W 2.73 | Y 2.51 | N 3.33 | S 3.43 | Q 2.94 | I 3.03 | F 2.45 | L 2.96 | G 2.94 | K 3.43 | C 2.88 | H 2.78 | T 3.36 | A 3.15
H16: T 3.93 | P 4.19 | E 4.38 | Y 3.34 | F 2.91 | S 4.45 | C 3.28 | L 3.22 | A 3.64 | V 2.97 | R 3.2 | D 4.43 | Q 3.48 | W 2.51 | G 4.16 | M 3.63 | I 2.53 | N 3.92 | K 3.51
T10: S 3.94 | Y 3.03 | K 2.35 | H 3.37 | C 3.19 | L 2.71 | N 4.01 | D 4.32 | E 4.44 | I 3.05 | F 2.61 | Q 3.47 | W 2.65 | R 2.59 | A 3.39 | P 3.7 | M 2.87 | G 3.87 | V 3.53
L11: C 4.26 | F 2.81 | Q 4.88 | S 4.95 | G 4.58 | P 4.92 | W 2.38 | Y 3.25 | T 5.29 | A 4.7 | I 2.96 | E 5.13 | N 4.96 | R 4.19 | V 3.98 | H 4.57 | M 4.19 | D 5.01 | K 4.71
N2: T 3.36 | Y 4.29 | V 1.6 | S 3.91 | W 4.2
E19: D 4.05 | R 2.69 | P 3.86 | H 3.39 | L 2.28 | C 3.33 | Y 2.42 | V 2.67 | I 2.85 | F 2.49 | M 3.01 | N 3.36 | A 2.63 | T 3.5 | K 3.25 | S 3.39 | G 3.8 | Q 3.36 | W 2.75
S4: F 4 | I 3.82 | Y 4.27 | L 3.95 | H 4.26 | C 4.07 | D 4.72 | M 4.21 | A 4.1 | K 4.17 | N 4.48 | Q 4.28 | E 4.72 | T 3.79 | R 4.65 | V 4.02 | P 4.69 | G 3.88 | W 3.67
A14: F 2.53 | M 3.62 | L 3.09 | I 3.02 | G 3.52 | D 4.29 | P 4.08 | Y 2.65 | C 2.53 | K 3.92 | R 3.48 | Q 3.86 | S 4.2 | H 3.64 | N 4.04 | V 3.41 | W 2.51 | T 4.04 | E 4.63
L12: P 5.16 | K 4.45 | M 4.29 | Y 3.63 | V 4.15 | Q 4.2 | S 4.79 | E 5.25 | D 5.35 | R 4.44 | A 4.41 | T 4.62 | G 4.23 | H 4.61 | W 1.58 | I 3.86 | C 4.02 | N 4.54 | F 2.35
A15: S 4.07 | F 2.47 | W 2.3 | P 3.61 | M 2.93 | V 2.53 | D 4.54 | Q 3.82 | H 3.56 | Y 3.48 | C 3.3 | G 4.28 | E 4.53 | I 2.29 | N 3.85 | T 3.75 | L 2 | K 3.96 | R 3.56
S13: D 3.88 | W 1.51 | K 2.58 | G 3.29 | T 4.17 | N 3.66 | A 3.21 | I 2.45 | P 4.2 | R 2.56 | F 2.66 | M 3.08 | C 3.25 | L 2.9 | Q 3.66 | H 3.47 | Y 2.75 | V 3.2 | E 3.2
D7: G 4.17 | Q 4.27 | N 3.98 | R 3.7 | L 3.35 | H 3.67 | T 3.55 | K 3.62 | V 2.92 | E 3.46 | F 2.81 | C 4.08 | W 1.92 | A 3.72 | Y 3.52 | P 4.13 | S 4.11 | M 3.23 | I 3.21
V18: E 4.44 | R 3.43 | G 3.79 | N 3.8 | F 3.1 | Y 3.49 | S 3.65 | C 3.65 | D 4.13 | L 3.69 | H 3.28 | M 3.65 | A 4 | I 3.67 | Q 3.76 | P 4.41 | W 2.54 | T 4.24 | K 4.14
Q9: K 3.12 | M 2.72 | R 3.13 | N 4.1 | T 3.56 | A 3.79 | I 2.6 | P 4.08 | H 3.68 | V 3.24 | C 3.06 | S 4.09 | L 3.11 | F 2.45 | G 4.42 | W 2.2 | E 4.45 | D 4.5 | Y 3.36
